The data set deals with the molecule itself. Put plainly: SEC; Superdex 200 10/300 GL, 50 mM Tris-HCl pH 7.6, 150 mM NaCl; 50 nmol NgCuNiR; apparent molecular weight from a calibration curve (Gel Filtration Calibration Kit, High Molecular Weight). In general terms: In gel filtration, larger molecules generally elute earlier.

The source of these data is paper PMC10452240, “Biochemical Characterization of the Copper Nitrite Reductase from Neisseria gonorrhoeae” (Biomolecules, 2023).

B1: copper-containing nitrite reductase from Neisseria gonorrhoeae, soluble domain (enzyme)
chain: AAQATAETPAGELPVIDAVTTHAPEVPPAIDRDYPAKVRVKMETVEKTMKMDDGVEYRYWTFDGDVPGRMIRVREGDTVEVEFSNNPSSTVPHNVDFHAATGQGGGAAATFTAPGRTSTFSFKALQPGLYIYHCAVAPVGMHIANGMYGLILVEPKEGLPKVDKEFYIVQGDFYTKGKKGAQGLQPFDMDKAVAEQPEYVVFNGHVGSIAGDNALKAKAGETVRMYVGNGGPNLVSSFHVIGEIFDKVYVEGGKLINENVQSTIVPAGGSAIVEFKVDIPGSYTLVDHSIFRAFNKGALGQLKVEGAENPEIMTQKLSDTAYA
notes: the construct has no signal peptide; cytoplasmic 36.5 kDa protein; Holds one type 1 and one type 2 copper centre per monomer (2.0 ± 0.1 Cu per monomer); No removal of the His-tag is described; also called NgCuNiR; AniA
A word on the stoichiometry N: it is a count of units in the complex or per binding partner. On to B1, for which the “stoichiometry N” value turned out to be 3.
